Reference: publication PMC8105673

Molecular target: scavenger receptor CD36 (human (endogenous in THP-1)) (UniProt P16671)
Experiment: flow cytometry on cells; THP-1-derived M1 macrophages pre-incubated with 50 μM HSAUT, HSA_(HOCl) or buffer for 15 min at 0 °C (surface binding, no internalization), then stained with a PE-conjugated anti-CD36 blocking antibody; binding of HSA read indirectly as loss of antibody staining

Sequence of UniProt P16671 (P16671 whole entry): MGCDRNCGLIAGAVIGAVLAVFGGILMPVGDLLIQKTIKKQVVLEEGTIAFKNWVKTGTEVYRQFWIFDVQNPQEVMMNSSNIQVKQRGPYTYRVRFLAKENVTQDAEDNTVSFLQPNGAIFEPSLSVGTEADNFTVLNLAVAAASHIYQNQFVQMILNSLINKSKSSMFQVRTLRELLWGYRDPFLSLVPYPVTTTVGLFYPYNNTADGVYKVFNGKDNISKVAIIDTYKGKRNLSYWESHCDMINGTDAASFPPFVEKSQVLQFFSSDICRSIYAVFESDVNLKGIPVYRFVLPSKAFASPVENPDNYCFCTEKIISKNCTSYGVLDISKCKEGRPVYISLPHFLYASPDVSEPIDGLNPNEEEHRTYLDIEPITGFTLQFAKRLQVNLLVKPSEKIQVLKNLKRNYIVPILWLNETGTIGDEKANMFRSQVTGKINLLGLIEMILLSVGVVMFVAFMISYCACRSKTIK

reduction of the binding of anti-CD36 antibody to the cells: 30%
Substance: HOCl-modified human serum albumin (from UniProt P02768 25-609) (natural protein)
